The Kd is the free concentration of one partner at which half of the binding sites on the other are occupied at equilibrium, for simple one-to-one binding. A higher Kd goes with lower affinity. Broadly, the stoichiometry N is the number of molecules, sites or subunits per partner or assembly.

Positions count from the first letter of the chain named.

The labels stand for the following.
T1: Tbis1 (Thermobispora bispora DSM 43833, UniProt D6YAC6 2-309)
T1 sequence: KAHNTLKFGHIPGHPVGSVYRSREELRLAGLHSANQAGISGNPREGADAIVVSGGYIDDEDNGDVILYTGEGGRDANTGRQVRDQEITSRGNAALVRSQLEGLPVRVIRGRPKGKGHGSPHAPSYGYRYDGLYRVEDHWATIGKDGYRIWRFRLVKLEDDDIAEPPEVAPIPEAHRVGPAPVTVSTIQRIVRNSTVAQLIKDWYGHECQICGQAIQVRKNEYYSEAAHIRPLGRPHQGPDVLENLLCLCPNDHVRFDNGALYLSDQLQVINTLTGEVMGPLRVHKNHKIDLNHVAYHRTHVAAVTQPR

T2: Sco5333 (Streptomyces coelicolor, UniProt Q9ADD4 1-301)
T2 sequence: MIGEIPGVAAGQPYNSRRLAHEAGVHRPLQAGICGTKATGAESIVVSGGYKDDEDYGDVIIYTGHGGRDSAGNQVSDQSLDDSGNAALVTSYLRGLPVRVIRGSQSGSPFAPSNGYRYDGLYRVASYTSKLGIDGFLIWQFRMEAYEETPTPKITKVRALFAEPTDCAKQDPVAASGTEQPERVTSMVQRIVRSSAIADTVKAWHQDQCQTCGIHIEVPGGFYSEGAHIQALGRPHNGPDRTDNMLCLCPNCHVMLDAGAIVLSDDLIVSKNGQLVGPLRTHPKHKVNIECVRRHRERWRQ

B1: 54nt top methylated (54nt-1/4) (dsDNA)
DNA 1: GAAACCCGACAGGACTATAAAGATACCGGCGTTTCCCCCTGGAAGCTCCCTCGT
DNA 2: ACGAGGGAGCTTCCAGGGGGAAACGCCGGTATCTTTATAGTCCTGTCGGGTTTC
modifications: 5mC at strand 1 pos 27
B2: 54nt bottom methylated (54nt-2/3) (dsDNA)
DNA 1: B1 DNA 1
DNA 2: B1 DNA 2
modifications: 5mC at strand 2 pos 27
B3: 56nt top methylated (56nt-1/4) (dsDNA)
DNA 1: CGGCGTTTCCGGGTTCCATAGGCTCCGCTCCGGCCTCTGATGACCAGGGCATCACA
DNA 2: TGTGATGCCCTGGTCATCAGAGGCCGGAGCGGAGCCTATGGAACCCGGAAACGCCG
modifications: 5mC at strand 1 pos 31
B4: 56nt bottom methylated (56nt-2/3) (dsDNA)
DNA 1: B3 DNA 1
DNA 2: B3 DNA 2
modifications: 5mC at strand 2 pos 25 (Table S3; methods print 24)
B5: 56nt non-methylated (56nt-2/4) (dsDNA)
DNA 1: B3 DNA 1
DNA 2: B3 DNA 2
B6: 55ntDcm2 fully methylated (55nt-5/7) (dsDNA)
DNA 1: ACTATAAAGATACCAGGCGTTTCCCCCTGGAAGCTCCCTCGTGCGCTCTCCTGTT
DNA 2: AACAGGAGAGCGCACGAGGGAGCTTCCAGGGGGAAACGCCTGGTATCTTTATAGT
modifications: 5mC at strand 1 pos 27 and strand 2 pos 27
B7: 55ntDcm2 bottom methylated (55nt-6/7) (dsDNA)
DNA 1: B6 DNA 1
DNA 2: B6 DNA 2
modifications: 5mC at strand 2 pos 27
B8: 55ntDcm2 top methylated (55nt-5/8) (dsDNA)
DNA 1: B6 DNA 1
DNA 2: B6 DNA 2
modifications: 5mC at strand 1 pos 27
B9: 55ntDcm2 non-methylated (55nt-6/8) (dsDNA)
DNA 1: B6 DNA 1
DNA 2: B6 DNA 2
B10: 55ntDcm1 non-methylated (55nt-2/4) (dsDNA)
DNA 1: GAAACCCGACAGGACTATAAAGATACCAGGCGTTTCCCCCTGGAAGCTCCCTCGT
DNA 2: ACGAGGGAGCTTCCAGGGGGAAACGCCTGGTATCTTTATAGTCCTGTCGGGTTTC
B11: 55ntDcm1 TmCAGG full (55nt-17/19) (dsDNA)
DNA 1: B10 DNA 1 with C26T
DNA 2: B10 DNA 2 with G30A
modifications: 5mC at strand 1 pos 27 and strand 2 pos 27
B12: 55ntDcm1 GmCAGG full (55nt-9/11) (dsDNA)
DNA 1: B10 DNA 1 with C26G
DNA 2: B10 DNA 2 with G30C
modifications: 5mC at strand 1 pos 27 and strand 2 pos 27
B13: 55ntDcm1 CmCGGG full (55nt-29/31) (dsDNA)
DNA 1: B10 DNA 1 with A28G
DNA 2: B10 DNA 2 with T28C
modifications: 5mC at strand 1 pos 27 and strand 2 pos 27
B14: 55ntDcm1 fully methylated (55nt-1/3) (dsDNA)
DNA 1: B10 DNA 1
DNA 2: B10 DNA 2
modifications: 5mC at strand 1 pos 27 and strand 2 pos 27
B15: 55ntDcm1 CmCCGG full (55nt-25/27) (dsDNA)
DNA 1: B10 DNA 1 with A28C
DNA 2: B10 DNA 2 with T28G
modifications: 5mC at strand 1 pos 27 and strand 2 pos 27
B16: 55ntDcm1 AmCAGG full (55nt-13/15) (dsDNA)
DNA 1: B10 DNA 1 with C26A
DNA 2: B10 DNA 2 with G30T
modifications: 5mC at strand 1 pos 27 and strand 2 pos 27
B17: 55ntDcm1 GmCAGG top (55nt-9/12) (dsDNA)
DNA 1: B10 DNA 1 with C26G
DNA 2: B10 DNA 2 with G30C
modifications: 5mC at strand 1 pos 27
B18: 55ntDcm1 TmCAGG top (55nt-17/20) (dsDNA)
DNA 1: B10 DNA 1 with C26T
DNA 2: B10 DNA 2 with G30A
modifications: 5mC at strand 1 pos 27
B19: 55ntDcm1 CmCTGG full (55nt-21/23) (dsDNA)
DNA 1: B10 DNA 1 with A28T
DNA 2: B10 DNA 2 with T28A
modifications: 5mC at strand 1 pos 27 and strand 2 pos 27
B20: 55ntDcm1 CmCTGG bottom (55nt-22/23) (dsDNA)
DNA 1: B10 DNA 1 with A28T
DNA 2: B10 DNA 2 with T28A
modifications: 5mC at strand 2 pos 27
B21: 55ntDcm1 CmCGGG top (55nt-29/32) (dsDNA)
DNA 1: B10 DNA 1 with A28G
DNA 2: B10 DNA 2 with T28C
modifications: 5mC at strand 1 pos 27
B22: 55ntDcm1 top methylated (55nt-1/4) (dsDNA)
DNA 1: B10 DNA 1
DNA 2: B10 DNA 2
modifications: 5mC at strand 1 pos 27
B23: 55ntDcm1 AmCAGG top (55nt-13/16) (dsDNA)
DNA 1: B10 DNA 1 with C26A
DNA 2: B10 DNA 2 with G30T
modifications: 5mC at strand 1 pos 27
B24: 55ntDcm1 TmCAGG bottom (55nt-18/19) (dsDNA)
DNA 1: B10 DNA 1 with C26T
DNA 2: B10 DNA 2 with G30A
modifications: 5mC at strand 2 pos 27
B25: 55ntDcm1 CmCTGG top (55nt-21/24) (dsDNA)
DNA 1: B10 DNA 1 with A28T
DNA 2: B10 DNA 2 with T28A
modifications: 5mC at strand 1 pos 27
B26: 55ntDcm1 bottom methylated (55nt-2/3) (dsDNA)
DNA 1: B10 DNA 1
DNA 2: B10 DNA 2
modifications: 5mC at strand 2 pos 27
B27: 55ntDcm1 CmCCGG bottom (55nt-26/27) (dsDNA)
DNA 1: B10 DNA 1 with A28C
DNA 2: B10 DNA 2 with T28G
modifications: 5mC at strand 2 pos 27
B28: 55ntDcm1 CmCCGG top (55nt-25/28) (dsDNA)
DNA 1: B10 DNA 1 with A28C
DNA 2: B10 DNA 2 with T28G
modifications: 5mC at strand 1 pos 27
B29: 55ntDcm1 GmCAGG bottom (55nt-10/11) (dsDNA)
DNA 1: B10 DNA 1 with C26G
DNA 2: B10 DNA 2 with G30C
modifications: 5mC at strand 2 pos 27
B30: 55ntDcm1 CmCGGG bottom (55nt-30/31) (dsDNA)
DNA 1: B10 DNA 1 with A28G
DNA 2: B10 DNA 2 with T28C
modifications: 5mC at strand 2 pos 27
B31: 55ntDcm1 AmCAGG bottom (55nt-14/15) (dsDNA)
DNA 1: B10 DNA 1 with C26A
DNA 2: B10 DNA 2 with G30T
modifications: 5mC at strand 2 pos 27
B32: 66nt fully methylated (66nt-1/3) (dsDNA)
DNA 1: AAAAACGGCGTTTCCGGGTTCCATAGGCTCCGCACCGGTCTCTGATGACCAGGGCATCACATTTTT
DNA 2: AAAAATGTGATGCCCTGGTCATCAGAGACCGGTGCGGAGCCTATGGAACCCGGAAACGCCGTTTTT
modifications: 5mC at strand 1 pos 36 and strand 2 pos 30
B33: Sco5333 (enzyme, Streptomyces coelicolor, UniProt Q9ADD4 1-301, looked up)
chain: T2 sequence

MBD of human MeCP2, sequence (P51608 77-166): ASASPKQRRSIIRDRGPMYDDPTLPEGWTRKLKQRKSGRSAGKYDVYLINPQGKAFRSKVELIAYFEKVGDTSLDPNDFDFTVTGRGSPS

The target of the first series is MBD of mouse MeCP2 (mouse, UniProt Q9Z2D6 77-165). In words: EMSA. (In general: In EMSA bound probe runs differently from free probe, usually more slowly.)
MBD of mouse MeCP2, sequence (Q9Z2D6 77-165): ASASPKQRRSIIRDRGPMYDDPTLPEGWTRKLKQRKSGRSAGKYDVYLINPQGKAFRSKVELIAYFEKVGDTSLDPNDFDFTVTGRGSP
Consider B1, for which the binding result was “no binding”.
B2: the binding result is “no binding”.

Another series concerns the target T1, Tbis1. In words: EMSA.
With B3, the binding result is listed as “binds”.
Take B4: the binding result was “binds”.
Same read-out and setting: the result for B5 reads “no binding”.

For another series, the target named is T2, Sco5333. Description: EMSA.
As to B6, the binding result was “binds”.
In the case of B7, the binding result is “binds”.
Still for that read-out and setting: the entry for B8 is “binds”.
On to B9, for which the binding result is on record as “no binding”.
With B10, the binding result is listed as “no binding”.
As for B11, the binding result is “binds”.
In the case of B12, the binding result was “binds”.
On the same count and under the same terms, the result for B13 reads “binds”; that for B14, “binds”; that for B15, “binds”.
Same read-out and setting: the result for B16 reads “binds”.
On to B17, for which the binding result is “binds”.
The same measure, in the same setting: the result for B18 reads “binds”; that for B19, “binds”; that for B20, “binds”.
For B21, the binding result was “binds”.
With B22, the binding result is recorded as “binds”.
The same measure, in the same setting: the entry for B23 is “binds”.
Regarding B24, the binding result is “binds”.
As for B25, the binding result is “binds”.
For the molecule B26, the binding result is “binds”.
Same read-out and setting: the result for B27 reads “binds”; that for B28, “binds”.
Consider B29, for which the binding result is given as “binds”.
Same read-out and setting: the result for B30 reads “binds”; that for B31, “binds”.

The next series addresses T2, Sco5333. Description: ITC. Background: In ITC the heat of successive injections is recorded.
The molecule B1 showed an equilibrium dissociation constant (Kd) of 3140 nM.

The next series deals with T2, Sco5333. Description: ITC. This is another data set of the same source.
B2: the Kd came to 1470 nM.

Another series concerns the target MBD of human MeCP2 (human, UniProt P51608 77-166). In words: EMSA.
With B32, the binding signal was 64 fold preference over non-methylated.

The target in a further series is T1, Tbis1. In words: EMSA. The source holds these as a separate data set.
B32: the binding signal is > 100 fold preference over non-methylated.

Another series concerns the molecule itself. Description: SEC. (In general: SEC sorts molecules by how far they enter the pores of the column.)
Regarding B33, the “stoichiometry N” value is 2.
